In publication PMC6599887, “Exploration of the TRIM Fold of MuRF1 Using EPR Reveals a Canonical Antiparallel Structure and Extended COS-Box” (Journal of Molecular Biology, 2019):

Molecular target: the molecule itself
Experiment: PELDOR (pulsed EPR, DEER); MTSSL-labelled protein, 100 to 200 uM MuRF1 dimer, deuterated Hepes pH 8.0/NaCl buffer mixed 1:1 with D8-glycerol, flash frozen; Q-band, 50 K; distances between labels across the protomers of the dimer

| Protein | binding result |
| --- | --- |
| MuRF1-HD E313C (cysteine-null background), MTSSL-labelled (domain or fragment, UniProt Q969Q1 155-328, looked up, MTSSL spin label (R1) on cysteine 313, MuRF1 (TRIM63) helical domain, residues 155-328 of UniProtKB Q969Q1; also called E313R1; not shown: His6, N-terminal, cleaved; SUMO, N-terminal, cleaved) EVAPLQSVFQGQKTELNNSISMLVAGNDRVQTIITQLEDSRRVTKENSHQVKEELSQKFDTLYAILDEKKSELLQRITQEQEKKLSFIEALIQQYQEQLDKSTKLVETAIQSLDEPGGATFLLTAKQLIKSIVEASKGSQLGKTEQGFENMDFFTLDLCHIADALRAIDFGTDE | binds |
| MuRF1-HD E222C (cysteine-null background), MTSSL-labelled (domain or fragment, UniProt Q969Q1 155-328, looked up, MTSSL spin label (R1) on cysteine 222, MuRF1 (TRIM63) helical domain, residues 155-328 of UniProtKB Q969Q1; also called E222R1; not shown: His6, N-terminal, cleaved; SUMO, N-terminal, cleaved) EVAPLQSVFQGQKTELNNSISMLVAGNDRVQTIITQLEDSRRVTKENSHQVKEELSQKFDTLYAILDCKKSELLQRITQEQEKKLSFIEALIQQYQEQLDKSTKLVETAIQSLDEPGGATFLLTAKQLIKSIVEASKGSQLGKTEQGFENMDFFTLDLEHIADALRAIDFGTDE | binds |
| MuRF1-HD K212C (cysteine-null background), MTSSL-labelled (domain or fragment, UniProt Q969Q1 155-328, looked up, MTSSL spin label (R1) on cysteine 212, MuRF1 (TRIM63) helical domain, residues 155-328 of UniProtKB Q969Q1; also called K212R1; not shown: His6, N-terminal, cleaved; SUMO, N-terminal, cleaved) EVAPLQSVFQGQKTELNNSISMLVAGNDRVQTIITQLEDSRRVTKENSHQVKEELSQCFDTLYAILDEKKSELLQRITQEQEKKLSFIEALIQQYQEQLDKSTKLVETAIQSLDEPGGATFLLTAKQLIKSIVEASKGSQLGKTEQGFENMDFFTLDLEHIADALRAIDFGTDE | binds |
| MuRF1-HD E243C (cysteine-null background), MTSSL-labelled (domain or fragment, UniProt Q969Q1 155-328, looked up, MTSSL spin label (R1) on cysteine 243, MuRF1 (TRIM63) helical domain, residues 155-328 of UniProtKB Q969Q1; also called E243R1; not shown: His6, N-terminal, cleaved; SUMO, N-terminal, cleaved) EVAPLQSVFQGQKTELNNSISMLVAGNDRVQTIITQLEDSRRVTKENSHQVKEELSQKFDTLYAILDEKKSELLQRITQEQEKKLSFICALIQQYQEQLDKSTKLVETAIQSLDEPGGATFLLTAKQLIKSIVEASKGSQLGKTEQGFENMDFFTLDLEHIADALRAIDFGTDE | binds |
| MuRF1-HD E192C (cysteine-null background), MTSSL-labelled (domain or fragment, UniProt Q969Q1 155-328, looked up, MTSSL spin label (R1) on cysteine 192, MuRF1 (TRIM63) helical domain, residues 155-328 of UniProtKB Q969Q1; also called E192R1; not shown: His6, N-terminal, cleaved; SUMO, N-terminal, cleaved) EVAPLQSVFQGQKTELNNSISMLVAGNDRVQTIITQLCDSRRVTKENSHQVKEELSQKFDTLYAILDEKKSELLQRITQEQEKKLSFIEALIQQYQEQLDKSTKLVETAIQSLDEPGGATFLLTAKQLIKSIVEASKGSQLGKTEQGFENMDFFTLDLEHIADALRAIDFGTDE | binds |
| MuRF1-HD doubly labelled at E192R1 and R320R1 (cysteine-null background) (domain or fragment, UniProt Q969Q1 155-328, looked up, MTSSL spin label (R1) on cysteines 192 and 320, MuRF1 (TRIM63) helical domain, residues 155-328 of UniProtKB Q969Q1; The double mutant is told only as labels placed at E192R1 and R320R1 simultaneously; the cysteine-null background follows from the methods; also called double-labeled sample; not shown: His6, N-terminal, cleaved; SUMO, N-terminal, cleaved) EVAPLQSVFQGQKTELNNSISMLVAGNDRVQTIITQLCDSRRVTKENSHQVKEELSQKFDTLYAILDEKKSELLQRITQEQEKKLSFIEALIQQYQEQLDKSTKLVETAIQSLDEPGGATFLLTAKQLIKSIVEASKGSQLGKTEQGFENMDFFTLDLEHIADALCAIDFGTDE | binds |
| MuRF1-HD E200C (cysteine-null background), MTSSL-labelled (domain or fragment, UniProt Q969Q1 155-328, looked up, MTSSL spin label (R1) on cysteine 200, MuRF1 (TRIM63) helical domain, residues 155-328 of UniProtKB Q969Q1; also called E200R1; not shown: His6, N-terminal, cleaved; SUMO, N-terminal, cleaved) EVAPLQSVFQGQKTELNNSISMLVAGNDRVQTIITQLEDSRRVTKCNSHQVKEELSQKFDTLYAILDEKKSELLQRITQEQEKKLSFIEALIQQYQEQLDKSTKLVETAIQSLDEPGGATFLLTAKQLIKSIVEASKGSQLGKTEQGFENMDFFTLDLEHIADALRAIDFGTDE | binds |
| MuRF1-HD R230C (cysteine-null background), MTSSL-labelled (domain or fragment, UniProt Q969Q1 155-328, looked up, MTSSL spin label (R1) on cysteine 230, MuRF1 (TRIM63) helical domain, residues 155-328 of UniProtKB Q969Q1; also called R230R1; not shown: His6, N-terminal, cleaved; SUMO, N-terminal, cleaved) EVAPLQSVFQGQKTELNNSISMLVAGNDRVQTIITQLEDSRRVTKENSHQVKEELSQKFDTLYAILDEKKSELLQCITQEQEKKLSFIEALIQQYQEQLDKSTKLVETAIQSLDEPGGATFLLTAKQLIKSIVEASKGSQLGKTEQGFENMDFFTLDLEHIADALRAIDFGTDE | binds |
| MuRF1-HD K297C (cysteine-null background), MTSSL-labelled (domain or fragment, UniProt Q969Q1 155-328, looked up, MTSSL spin label (R1) on cysteine 297, MuRF1 (TRIM63) helical domain, residues 155-328 of UniProtKB Q969Q1; also called K297R1; not shown: His6, N-terminal, cleaved; SUMO, N-terminal, cleaved) EVAPLQSVFQGQKTELNNSISMLVAGNDRVQTIITQLEDSRRVTKENSHQVKEELSQKFDTLYAILDEKKSELLQRITQEQEKKLSFIEALIQQYQEQLDKSTKLVETAIQSLDEPGGATFLLTAKQLIKSIVEASKGSQLGCTEQGFENMDFFTLDLEHIADALRAIDFGTDE | binds |
| MuRF1-HD R320C (cysteine-null background), MTSSL-labelled (domain or fragment, UniProt Q969Q1 155-328, looked up, MTSSL spin label (R1) on cysteine 320, MuRF1 (TRIM63) helical domain, residues 155-328 of UniProtKB Q969Q1; also called R320R1; E320R1 (as printed once); not shown: His6, N-terminal, cleaved; SUMO, N-terminal, cleaved) EVAPLQSVFQGQKTELNNSISMLVAGNDRVQTIITQLEDSRRVTKENSHQVKEELSQKFDTLYAILDEKKSELLQRITQEQEKKLSFIEALIQQYQEQLDKSTKLVETAIQSLDEPGGATFLLTAKQLIKSIVEASKGSQLGKTEQGFENMDFFTLDLEHIADALCAIDFGTDE | binds |

Molecular target: the molecule itself
Experiment: cross-linking; zero-length disulfide cross-linking by spontaneous oxidation: 20 uM protein reduced in 50 mM Tris-HCl pH 8.0, 100 mM NaCl, 20 mM beta-mercaptoethanol, dialysed overnight at 4 °C into the same buffer without reducing agent; non-reducing against reducing SDS-PAGE, Coomassie staining

| Protein | stoichiometry N |
| --- | --- |
| MuRF1-HD F163C/L276C (in cysteine-null background) (domain or fragment, UniProt Q969Q1 155-328, looked up, disulfide bonds between the introduced cysteines after spontaneous oxidation, MuRF1 (TRIM63) helical domain, residues 155-328 of UniProtKB Q969Q1; not shown: His6, N-terminal, cleaved; SUMO, N-terminal, cleaved) EVAPLQSVCQGQKTELNNSISMLVAGNDRVQTIITQLEDSRRVTKENSHQVKEELSQKFDTLYAILDEKKSELLQRITQEQEKKLSFIEALIQQYQEQLDKSTKLVETAIQSLDEPGGATFCLTAKQLIKSIVEASKGSQLGKTEQGFENMDFFTLDLEHIADALRAIDFGTDE | 2 |
| MuRF1-HD S202C/Q235C (in cysteine-null background) (domain or fragment, UniProt Q969Q1 155-328, looked up, disulfide bonds between the introduced cysteines after spontaneous oxidation, MuRF1 (TRIM63) helical domain, residues 155-328 of UniProtKB Q969Q1; not shown: His6, N-terminal, cleaved; SUMO, N-terminal, cleaved) EVAPLQSVFQGQKTELNNSISMLVAGNDRVQTIITQLEDSRRVTKENCHQVKEELSQKFDTLYAILDEKKSELLQRITQECEKKLSFIEALIQQYQEQLDKSTKLVETAIQSLDEPGGATFLLTAKQLIKSIVEASKGSQLGKTEQGFENMDFFTLDLEHIADALRAIDFGTDE | 2 |
| MuRF1-HD V184C/L253C (in cysteine-null background) (domain or fragment, UniProt Q969Q1 155-328, looked up, disulfide bonds between the introduced cysteines after spontaneous oxidation, MuRF1 (TRIM63) helical domain, residues 155-328 of UniProtKB Q969Q1; not shown: His6, N-terminal, cleaved; SUMO, N-terminal, cleaved) EVAPLQSVFQGQKTELNNSISMLVAGNDRCQTIITQLEDSRRVTKENSHQVKEELSQKFDTLYAILDEKKSELLQRITQEQEKKLSFIEALIQQYQEQCDKSTKLVETAIQSLDEPGGATFLLTAKQLIKSIVEASKGSQLGKTEQGFENMDFFTLDLEHIADALRAIDFGTDE | 2 |
